The target in the assay is Clostridium difficile toxin A (TcdA) (Clostridium difficile), P16154. Put plainly: SPR (Biacore 3000), VHH over immobilized TcdA, 1:1 fit. The note with it: remark: other sources report otherwise. For orientation: SPR reads the build-up and loss of mass on a sensor chip optically.

These results are taken from patent publication US20210171613A1.

Sequence of Clostridium difficile toxin A (TcdA) (Clostridium difficile), P16154 (P16154 whole entry): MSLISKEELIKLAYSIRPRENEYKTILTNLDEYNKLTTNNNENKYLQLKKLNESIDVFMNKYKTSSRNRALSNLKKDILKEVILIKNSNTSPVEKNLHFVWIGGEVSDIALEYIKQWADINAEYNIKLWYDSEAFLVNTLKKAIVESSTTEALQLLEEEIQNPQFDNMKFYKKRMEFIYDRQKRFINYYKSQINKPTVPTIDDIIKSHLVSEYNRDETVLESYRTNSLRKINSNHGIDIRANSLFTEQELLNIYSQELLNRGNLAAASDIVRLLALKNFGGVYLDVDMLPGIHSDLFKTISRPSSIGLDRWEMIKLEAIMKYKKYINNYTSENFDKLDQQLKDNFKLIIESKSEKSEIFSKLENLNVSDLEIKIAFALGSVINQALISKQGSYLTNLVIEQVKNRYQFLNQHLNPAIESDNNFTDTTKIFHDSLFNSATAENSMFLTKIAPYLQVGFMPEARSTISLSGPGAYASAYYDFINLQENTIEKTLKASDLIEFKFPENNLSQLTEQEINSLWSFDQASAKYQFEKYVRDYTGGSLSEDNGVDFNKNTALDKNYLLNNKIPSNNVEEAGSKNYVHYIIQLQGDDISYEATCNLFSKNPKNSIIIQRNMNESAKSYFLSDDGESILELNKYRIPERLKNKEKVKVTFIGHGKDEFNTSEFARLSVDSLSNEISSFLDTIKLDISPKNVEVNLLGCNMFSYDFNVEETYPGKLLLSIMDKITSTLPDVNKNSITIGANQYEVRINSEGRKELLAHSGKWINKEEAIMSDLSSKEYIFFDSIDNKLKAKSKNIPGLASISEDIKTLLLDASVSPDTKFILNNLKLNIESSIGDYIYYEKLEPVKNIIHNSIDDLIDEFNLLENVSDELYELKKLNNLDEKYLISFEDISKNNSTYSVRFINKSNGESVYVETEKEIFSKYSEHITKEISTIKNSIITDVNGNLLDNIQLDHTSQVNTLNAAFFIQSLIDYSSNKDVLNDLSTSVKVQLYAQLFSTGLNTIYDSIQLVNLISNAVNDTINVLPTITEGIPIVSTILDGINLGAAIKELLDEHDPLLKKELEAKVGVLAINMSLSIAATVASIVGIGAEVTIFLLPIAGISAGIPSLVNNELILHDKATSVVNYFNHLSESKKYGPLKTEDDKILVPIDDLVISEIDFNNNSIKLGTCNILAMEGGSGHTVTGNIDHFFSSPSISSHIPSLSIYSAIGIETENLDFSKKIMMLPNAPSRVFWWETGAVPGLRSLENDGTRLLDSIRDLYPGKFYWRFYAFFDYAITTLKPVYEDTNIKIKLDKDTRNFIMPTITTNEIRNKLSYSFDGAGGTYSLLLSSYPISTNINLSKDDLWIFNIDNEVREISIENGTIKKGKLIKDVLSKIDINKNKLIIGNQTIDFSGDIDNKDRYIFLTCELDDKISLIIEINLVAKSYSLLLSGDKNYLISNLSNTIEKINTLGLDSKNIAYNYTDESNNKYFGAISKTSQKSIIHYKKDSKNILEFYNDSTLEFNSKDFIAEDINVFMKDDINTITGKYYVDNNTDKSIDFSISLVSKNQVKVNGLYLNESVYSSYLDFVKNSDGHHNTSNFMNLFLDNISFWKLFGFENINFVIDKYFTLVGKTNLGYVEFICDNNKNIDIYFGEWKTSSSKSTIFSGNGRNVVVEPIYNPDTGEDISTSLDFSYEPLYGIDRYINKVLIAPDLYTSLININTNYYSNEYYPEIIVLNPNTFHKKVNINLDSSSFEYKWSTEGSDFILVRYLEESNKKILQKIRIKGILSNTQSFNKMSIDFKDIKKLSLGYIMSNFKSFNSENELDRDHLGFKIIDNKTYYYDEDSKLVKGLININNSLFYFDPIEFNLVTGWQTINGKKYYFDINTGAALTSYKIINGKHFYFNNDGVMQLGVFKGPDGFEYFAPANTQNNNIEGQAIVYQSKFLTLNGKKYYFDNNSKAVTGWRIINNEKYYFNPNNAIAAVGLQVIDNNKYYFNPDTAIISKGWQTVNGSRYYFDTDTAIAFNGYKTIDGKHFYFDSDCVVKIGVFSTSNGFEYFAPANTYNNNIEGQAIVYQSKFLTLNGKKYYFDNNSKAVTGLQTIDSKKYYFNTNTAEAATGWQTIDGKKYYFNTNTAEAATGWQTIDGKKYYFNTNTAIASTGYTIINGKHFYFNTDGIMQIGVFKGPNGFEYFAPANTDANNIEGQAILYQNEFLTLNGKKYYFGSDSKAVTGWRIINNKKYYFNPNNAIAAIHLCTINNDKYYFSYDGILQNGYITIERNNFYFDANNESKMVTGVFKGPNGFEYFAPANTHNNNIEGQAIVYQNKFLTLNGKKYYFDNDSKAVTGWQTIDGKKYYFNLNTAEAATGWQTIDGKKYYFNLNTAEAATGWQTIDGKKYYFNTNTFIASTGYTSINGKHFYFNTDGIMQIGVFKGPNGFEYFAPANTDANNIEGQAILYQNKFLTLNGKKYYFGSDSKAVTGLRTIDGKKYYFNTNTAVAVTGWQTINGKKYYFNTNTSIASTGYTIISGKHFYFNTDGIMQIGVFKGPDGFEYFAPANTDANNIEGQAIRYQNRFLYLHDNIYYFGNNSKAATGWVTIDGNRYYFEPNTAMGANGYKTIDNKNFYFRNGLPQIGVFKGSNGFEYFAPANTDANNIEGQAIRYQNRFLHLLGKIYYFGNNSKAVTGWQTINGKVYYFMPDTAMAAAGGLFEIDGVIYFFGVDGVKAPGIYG

B1: Parent A26.8 VHH (VHH, not shown: small tags and cut ends)
VHH: QVKLEESGGGLVQAGGSLRLSCAASERTFSRYPVAWFRQAPGAEREFVAVISSTGTSTYYADSVKGRFTISRDNAKVTVYLQMNNLKREDTAVYFCAVNSQRTRLQDPNEYDYWGQGTQVTVSS
What is called Kd is the free concentration of one partner at which half of the binding sites on the other are occupied at equilibrium, for simple one-to-one binding. A lower Kd goes with higher affinity. In turn, B1 displayed a Kd of 18.7 nM.
